Article PMC12219679, “High yield purification of an isoleucine zipper-modified CD95 ligand for efficient cell apoptosis initiation and with biotin or DNA-oligomer binding domain to probe ligand functionalization effects” (BMC Biotechnology, 2025)
Where “and” joins values, the source holds several entries; their conditions need not be identical. Equal values may be shown once.

B1: CD95-His (Sino Biological) (receptor, UniProt P25445 26-173, looked up)
chain: QVTDINSKGLELRKTVTTVETQNLEGLHHDGQFCHKPCPPGERKARDCTVNGDEPDCVPCQEGKEYTDKAHFSSKCRRCRLCDEGHGLEVEINCTRTQNTKCRCKPNFFCNSTVCEHCDPCTKCEHGIIKECTLTSNTKCKEEGSRSN
notes: CD95 (Fas, Apo-1), soluble commercial protein with a His tag; No catalogue number is printed; In the functional rows on Hela WT cells the CD95 is the endogenous receptor of the cells; this molecule stands for it; also called Fas; Apo-1; source: bought: Sino Biological
B2: His-IZ-CD95L (His8-TEV-Cys-IZ-CD95L, secreted form without the IL2 signal peptide) (ligand)
chain: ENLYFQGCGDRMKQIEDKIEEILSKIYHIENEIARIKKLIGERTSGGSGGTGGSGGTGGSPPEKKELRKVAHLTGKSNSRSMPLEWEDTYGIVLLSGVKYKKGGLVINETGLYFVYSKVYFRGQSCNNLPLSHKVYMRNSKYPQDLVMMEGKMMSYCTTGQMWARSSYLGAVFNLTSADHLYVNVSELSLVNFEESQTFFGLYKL
notes: TEV protease cleavage site ENLYFQ, extra cysteine, isoleucine zipper (IZ, variant of the GCN4 leucine zipper) and linker; stands after the His8 tag in the printed insert; CD95 ligand (CD95L, Fas ligand, CD178, TNFSF6), human, extracellular domain, amino acids 137-281, without the stalk region; Origin: a designed isoleucine zipper joined to a natural stretch of CD95L; also called X-IZ-CD95L; …

Legend:
[1] = biological target: T1, FLAG-CD95L (Enzo) (UniProt P48023 130-281); experiment: ELISA; CD95-His coated at 2 µg/ml in PBS overnight at 4 °C; biotin-IZ-CD95L or FLAG-CD95L 0.1 nM to 100 nM in 0.5% BSA/PBST, 2 h at r.t.; detected with anti-CD95L antibody and HRP secondary; 4-parameter logistic fit; settings: both partners purified
T1 construct: CD95 ligand (CD95L, Fas ligand), soluble commercial protein with a FLAG tag; No catalogue number is printed; source: bought: Enzo Life Sciences
T1 sequence (looked up): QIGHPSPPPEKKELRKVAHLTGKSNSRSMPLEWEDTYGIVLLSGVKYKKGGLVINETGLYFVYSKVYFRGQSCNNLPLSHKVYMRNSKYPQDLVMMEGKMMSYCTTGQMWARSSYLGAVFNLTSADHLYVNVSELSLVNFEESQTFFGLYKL

[2] = biological target: the molecule itself; experiment: SEC; Superdex 75 10/300 GL (Fig. 3A) or ENrich SEC 70 10 x 300 (Fig. 3B, C); PBS pH 7.4, 0.3 ml/min; sizes from a standard curve of protein standards; peak shares from Gaussian fits

Binder | Kd [1] [nM] | stoichiometry N [2]
B1 | 11.3 | 
B2 |  | 3 and 2
